From patent US20250025566A1, “PEPTIDE-DRUG CONJUGATES FOR TREATMENT OF NEURODEGENERATIVE DISEASES” (KØBENHAVNS UNIVERSITET, priority 2021, published 2025)
Square brackets hold non-standard residues; d marks the D form. Side chains are listed from the residue outwards. Ends that are not written are not given here. * marks the point of attachment. memantine = CC12CC3CC(C)(C1)CC(N*)(C3)C2; disulfide linker = not defined here; Pen = CC(C)(S)[C@H](N)C(=O)O

Assays:
5×FAD mice = experiment: Number of amyloid plaques in frontal cortex and hippocampus of 5×FAD mice (Thioflavine S); format: in vivo; conditions: once-daily subcutaneous, 49 days, vs saline
Source text: Amyloid plaques are commonly found in subjects suffering from Alzheimer's and is caused by abnormal levels of the naturally occurring protein beta-amyloid 42 which clump together to form plaques that collect between neurons and disrupt cell function. Thus, patients suffering from Alzheimer's display elevated levels of amyloid plaques. […] Thus, without being bound by any particular theory, the inventors postulate that the conjugated molecule according to the present invention has a neuroprotective role.
Experiments were conducted using female 5×FAD (Jackson Laboratory, 34840-JAX) mice kept on a chow diet (Altromin #1310, Lage, Germany). The pharmacological studies were initiated at 8-week of age and the mice treated with once-daily subcutaneous injections of GLP-1/memantine or saline (control) for 49 days. Specifically, compounds were administered at a volume of 5 μL per gram, mice group housed (n=2-5 mice per cage) and maintained on a 12-hour light-dark cycle (light 6 am-[…]) at a temperature of 21-23° C. For week 5 and 6, the mice were single-housed and transferred to a digitally ventilated cage system. […] Every 6th slide through hippocampus (bregma: −2.80 mm to −0.94 mm) and frontal cortex (bregma: 0.14 mm to 2.96 mm) were collected and stained with Thioflavine S to quantify amyloid plaque deposition.

[1] = system: pro-inflammatory markers IL-1b, IL-6 and TNF-α; experiment: Gene expression of pro-inflammatory markers in hippocampus of 5×FAD mice (qPCR); format: in vivo; conditions: once-daily subcutaneous, 49 days
Experimental: Expression (as measured by mRNA) of pro-inflammatory markers, IL-1b, IL-6 and TNF-α increased across the board in the 5×FAD AD mouse model.
Experiments were conducted using female 5×FAD (Jackson Laboratory, 34840-JAX) mice kept on a chow diet (Altromin #1310, Lage, Germany). The pharmacological studies were initiated at 8-week of age and the mice treated with once-daily subcutaneous injections of GLP-1/memantine or saline (control) for 49 days with weekly measurements of body weight. Specifically, compounds were administered at a volume of 5 μL per gram, mice group-housed (n=2-5 mice per cage) and maintained on a 12-hour light-dark cycle (light 6 am-[…]) at a temperature of 21-23° C. […]
Hippocampal tissue from Example 3 was homogenized in a Trizol reagent (QIAzol Lysis Reagent, Qiagen) using a stainless steel bead (Qiagen) and a TissueLyser LT (Qiagen) for 3 min at 20 Hz. […] After RNA extraction, RNA content was measured using a NanoDrop 2000 (Thermo Fisher) and 500 ng of RNA was converted into cDNA by mixing FS buffer and DTT (Thermo Fisher) with Random Primers (Sigma-Aldrich) and incubated for 3 min at 70° C. followed by addition of dNTPs, RNase out, Superscript III (Thermo Fisher) and placed in a thermal cycler for 5 min at 25° C., 60 min at 50° C., 15 min at 70° C., and kept at −20° C. until further processing. […]

[2] = Body weight progression of 5×FAD Alzheimer's disease mouse model; format: in vivo; conditions: female 5×FAD mice, 100 nmol/kg/day subcutaneous daily, 49 days
Experimental: Female wild-type (WT) control mice+vehicle treatment (n=12), 5×FAD AD mice+vehicle treatment and 5×FAD AD mice+GLP-1/memantine (100 nmol/kg/day) treatment were subcutaneously injected daily for 49 days following which brain regions of the mice were dissected and saved for ex vivo analyses.
Experiments were conducted using female 5×FAD (Jackson Laboratory, 34840-JAX) mice kept on a chow diet (Altromin #1310, Lage, Germany). The pharmacological studies were initiated at 8-week of age and the mice treated with once-daily subcutaneous injections of GLP-1/memantine or saline (control) for 49 days with weekly measurements of body weight. Specifically, compounds were administered at a volume of 5 μL per gram, mice group-housed (n=2-5 mice per cage) and maintained on a 12-hour light-dark cycle (light 6 am-[…]) at a temperature of 21-23° C. For week 5 and 6, the mice were single-housed and transferred to a digitally ventilated cage system. For week 7, the mice were re-grouped in groups identical to weeks 0 to 4. Finally, mice were euthanized on day 49, tissues harvested, snap-frozen using liquid nitrogen and stored at −80° C. prior to analyses.

[3] = system: primary rat hippocampal neurons; experiment: Neuroprotection in primary hippocampal neurons (NMDA-induced neurotoxicity, LDH activity); format: cell-based; conditions: NMDA 100 μM, 24 hours, GLP-1 1 μM
Experimental: Primary rat hippocampal neurons were incubated with either buffer, NMDA (to induce neurotoxicity), NDMA+GLP-1 or NMDA+GLP-1/memantine conjugate for 24 hours. Media was harvested and analysed for Lactate Dehydrogenase (LDH) activity as an indirect measure of cellular cytotoxicity.
Primary cultures of hippocampal neurons were prepared from Sprague-Dawley rat fetuses (E18) and cells were diluted in Neurobasal medium containing B27 supplement (5×10^5 cells/mL) in a Poly-L-Lysin pre-coated 24-well cell culture plate. The neurons were kept at 37° C. in a humidified incubator with 5% C02 atmosphere. After 8 days in vitro, cultures were treated with either vehicle, NMDA (100 μM), NMDA+GLP-1 (1 μM) or NMDA+GLP-1/Memantine for 24 hours. Cell culture medium (50 μL) was dispatched to a 96-well ELISA plate and analyzed for Lactate Dehydrogenase (LDH) activity (CytoTox-96, Nonradioactive Cytotoxicity assay, Promega) according to the manufacturer's protocol.

| Substance | number of amyloid plaques in frontal cortex and hippocampus (5×FAD mice) | expression (mRNA) of pro-inflammatory markers IL-1b, IL-6 and TNF-α in hippocampus [1] | body weight progression [2] | NMDA-induced neurotoxicity (Lactate Dehydrogenase activity in media as indirect measure of cytotoxicity) [3] |
| --- | --- | --- | --- | --- |
| GLP-1 Pen40/memantine: GLP-1 peptide of SEQ ID NO:1 with Pen40, conjugated to memantine via disulfide linker (penicillamine linked) (HAEGTFTSDVSSYLEEQAAKEFIAWLVKGGPSSGAPPPS[Pen]([disulfide linker-memantine])-NH2; reading uncertain; listed as Homo sapiens) | reduced formation of amyloid plaques | completely abolishes the induction of inflammation | elicits only a transient weight loss | prevents the NMDA-induced neurotoxicity |
| GLP-1: GLP-1 peptide alone, the unconjugated peptide control in the neuroprotection test [reference compound] |  |  |  | but not GLP-1 peptide alone, prevents the NMDA-induced neurotoxicity |
